# Patent US20230226096A1 (Orna Therapeutics, Inc., priority 2020, published 2023)
# Tested on: HEK293 cells
# Type: cell-based, human
# Conditions: luminescence from secreted Gluc in supernatant 24 hours after transfection of HEK293 cells; circular RNA encoding Gluc with the named IRES (UTR truncated to 675 nt)
row,Molecule,Expression
1,"EV 30 (nucleic acid, listed as Enterovirus sp.) DNA: AAGCAAGGCAAACCTGACCAATAGTAGGTGTGGCACACCAGCCGCATTTTGGTCAAGCACTTCTGTTTCCCCGGACCGAGTATCAATAAGCTGCTCACGCGGCTGAAGGAGAAACCGTTCGTTACCCGACCAGCTACTTCGAGAAACCTAGTAACACTATGAACGTTGCGGAGTGTTTCGTTCAGCACTTCCCCCGTGTAGATCAGGTCGATGAGTCACCGCATTCCTCACGGGTGACCGTGGCGGTGGCTGCGTTGGCGGCCTGCCTACGGGTTCGCCCGTAGGACGCTCTAATACCGACATGGTGTGAAGAGTCCATTGAGCTAGCTGGTAGTCCTCCGGCCCCTGAATGCGGCTAATCCTAACTGCGGAGCAGGTGCTCACAGACCAGTGAGTAGCCTGTCGTAACGGGCAACTCTGCAGCGGAACCGACTACTTTGGGTGTTTTTCCTTTTTTCTTCTCTTATATTGGCTGCTTATGGTGACAATTAAAGAATTGTTACCATATAGCTATTGGATTGGCCATCCGGTGACGAGCAGAGCCATTGTTTACCTCTTTGTTGGATTTGTACCTTTGAACCACAAAGTCTTGAATACCATTCATCTCATTTTAAAGTTCAACTCAGCTAAAAGAAA",5.48E+06
2,"EV D94 (nucleic acid, listed as Enterovirus sp.) DNA: CGTGGCGGCCAGTACTCTGGTATCACGGTACCTTTGTACGCCTGTTTTATATCCCCTTCCCCCGCAACTTAGAAGAAAACAAATCAAGTTCACTAGGAGGGGGTACAAACCAGTACCACCACGAACAAGCACTTCTGTTTCCCCGGTGATGTCGTATAGACTGTAACCACGGTTGAAAACGATTGATCCGTTATCCGCTCTTGTACTTCGAAAAGCCCAGTATCACCTTGGAATCTTCGATGCGTTGCGCTCAGCACTCAACCCCAGAGTGTAGCTTAGGTCGATGAGTCTGGACACTCCTCACCGGCGACGGTGGTCCAGGCTGCGTTGGCGGCCTACCTGTGGTCCAAAGCCACAGGACGCTAGTTGTGAACAAGGTGTGAAGAGCCTATTGAGCTACAAGAGAATCCTCCGGCCCCTGAATGCGGCTAATCCTAACCACGGAGCAAGGGTACACAAACCAGTGTATATCTTGTCGTAACGCGCAAGTCTGTGGCGGAACCGACTACTTTGGGTGTCCGTGTTTCCTTTTGTTTTTATCATGGCTGCTTATGGTGACAATCTAAGATTGTTATCATATAGCTGTTGGATTGGCCATCCGGTAATTTATTGAGATTTGAGCATTTGCTTGTTTCTTCAACAATTTCACCTATTCATTGCATTTCAGCAGTCAAA",9.25E+07
3,"EV C102 (nucleic acid, listed as Enterovirus sp.) DNA: CTTTGTACGCCTGTTTTACATCCCCTCCCCCACGTAACTTTAGAAGCAATTCAACAAGTTCAATAGAGGGGGTACAAACCAGTATCACCACGAACAAGCACTTCTGTTTCCCCGGTGATTTTACATAAGCTGTGCCCACGGCTGAAAGTGAATGATCCGTTACCCGCTCGAGTACTTCGAAAAGCCTAGTATCGCTTTGGGATCTTCGACGCGTTGCGCTCAGCACTCTACCCCGAGTGTAGCTTAGGCTGATGAGTCTGGGCATTCCCCATCGGCGACGATGGCCCAGGCTGCGTTGGCGGCCTACCCATGGCTAACGCCATGGGACGCTAGTTGTGAACAAGGTGTGAAGAGCCTATTGAGCTACTCGAGAGTCCTCCGGCCCCTGAATGCGGCTAATCCCAACCACGGATCAGGTGCCTCCAACCCAGGAGGTGGCCTGTCGTAACGCGCAAGTCTGTGGCGGAACCGACTACTTTGGGTGTCCGTGTTTCCTTTTATCTTTTAAATGGCTGCTTATGGTGACAATCATAGATTGTTATCATAAAGCGAATTGGATTGGCCATCCGGTGAAATACAAACACATTATTTACTTGTTTGTTGGATTTACTCCGCTCACACAGCTTACTCCTAAGATAATATTTATTGTATTGCTGGTAAGGAGACACTATTATA",8.85E+07
